From US20200376136A1

Target: human six-transmembrane epithelial antigen of prostate 2 (STEAP2) (human) (UniProt Q8NFT2)
Assay: FACS on HEK293 cells (low STEAP2), MFI fold above unstained, average at 100-300 nM antibody

human six-transmembrane epithelial antigen of prostate 2 (STEAP2) (human), sequence (Q8NFT2 whole entry): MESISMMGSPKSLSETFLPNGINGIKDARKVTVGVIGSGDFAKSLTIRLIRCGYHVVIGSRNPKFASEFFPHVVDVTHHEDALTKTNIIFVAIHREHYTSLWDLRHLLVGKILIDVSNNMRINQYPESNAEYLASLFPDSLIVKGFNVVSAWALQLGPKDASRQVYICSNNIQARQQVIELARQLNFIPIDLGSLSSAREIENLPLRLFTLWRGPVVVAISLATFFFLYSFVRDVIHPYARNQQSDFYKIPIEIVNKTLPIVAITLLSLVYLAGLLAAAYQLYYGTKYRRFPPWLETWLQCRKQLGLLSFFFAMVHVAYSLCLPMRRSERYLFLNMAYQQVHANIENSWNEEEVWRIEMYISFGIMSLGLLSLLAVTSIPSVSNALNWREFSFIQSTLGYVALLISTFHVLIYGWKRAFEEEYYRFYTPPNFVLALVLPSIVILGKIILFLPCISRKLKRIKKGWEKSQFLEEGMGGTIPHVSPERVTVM

Avg F.A.B (fold above background) (fold above background) | Substance
1 | hIgG1 Isotype Control-I (antibody)
1.7 | hIgG1 Isotype Control-II (antibody)
